Tests used:
[1] = target: full-length recombinant human RAD51 protein, N-terminal 6xHis-tagged (human) (UniProt Q06609); assay: static light scattering
[2] = target: full-length recombinant human RAD51 protein, N-terminal 6xHis-tagged (human) (UniProt Q06609); assay: MST
[3] = target: full-length recombinant human RAD51 protein, N-terminal 6xHis-tagged (human) (UniProt Q06609)
[4] = target: T1, full-length recombinant human RAD51 protein, N-terminal 6xHis-tagged (human), Q06609; assay: static light scattering; conditions: remark: other sources report otherwise
T1 chain: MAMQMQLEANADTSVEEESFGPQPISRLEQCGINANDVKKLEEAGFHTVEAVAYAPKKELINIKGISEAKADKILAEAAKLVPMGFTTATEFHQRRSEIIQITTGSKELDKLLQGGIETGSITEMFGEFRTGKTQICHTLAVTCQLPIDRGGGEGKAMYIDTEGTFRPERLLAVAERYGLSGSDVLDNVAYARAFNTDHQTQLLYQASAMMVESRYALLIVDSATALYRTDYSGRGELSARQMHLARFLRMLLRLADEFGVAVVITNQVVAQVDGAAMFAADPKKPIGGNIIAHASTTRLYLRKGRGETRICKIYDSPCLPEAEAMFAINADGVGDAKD

BRC4 peptide (fourth BRC repeat of the BRCA2 protein)
EC50 [1]: 4000 to 5000 nM
EC50 [2]: 60 to 80 nM

Myristoylated BRC4 (BRC4-ss-Myr) (peptide)
IC50 of inhibition of homologous recombination in BxPC-3 cells [3]: 5 µM

B1: full-length recombinant human RAD51 protein, N-terminal 6xHis-tagged, Q06609 1-339 (natural protein)
chain: MAMQMQLEANADTSVEEESFGPQPISRLEQCGINANDVKKLEEAGFHTVEAVAYAPKKELINIKGISEAKADKILAEAAKLVPMGFTTATEFHQRRSEIIQITTGSKELDKLLQGGIETGSITEMFGEFRTGKTQICHTLAVTCQLPIDRGGGEGKAMYIDTEGTFRPERLLAVAERYGLSGSDVLDNVAYARAFNTDHQTQLLYQASAMMVESRYALLIVDSATALYRTDYSGRGELSARQMHLARFLRMLLRLADEFGVAVVITNQVVAQVDGAAMFAADPKKPIGGNIIAHASTTRLYLRKGRGETRICKIYDSPCLPEAEAMFAINADGVGDAKD
stoichiometry N [4]: 40 protomers

From publication doi:10.1101/2021.02.03.429564
